From patent publication US20260297195 (published 2026)

Assays:
[1] = molecular target: human PDL1-His (human); assay: SPR 25C
[2] = molecular target: human PDL1-Fc (human); assay: BLI
[3] = molecular target: human PDL1-Fc (human); assay: ELISA

human PDL1-Fc (human), sequence (chain, as listed by the source): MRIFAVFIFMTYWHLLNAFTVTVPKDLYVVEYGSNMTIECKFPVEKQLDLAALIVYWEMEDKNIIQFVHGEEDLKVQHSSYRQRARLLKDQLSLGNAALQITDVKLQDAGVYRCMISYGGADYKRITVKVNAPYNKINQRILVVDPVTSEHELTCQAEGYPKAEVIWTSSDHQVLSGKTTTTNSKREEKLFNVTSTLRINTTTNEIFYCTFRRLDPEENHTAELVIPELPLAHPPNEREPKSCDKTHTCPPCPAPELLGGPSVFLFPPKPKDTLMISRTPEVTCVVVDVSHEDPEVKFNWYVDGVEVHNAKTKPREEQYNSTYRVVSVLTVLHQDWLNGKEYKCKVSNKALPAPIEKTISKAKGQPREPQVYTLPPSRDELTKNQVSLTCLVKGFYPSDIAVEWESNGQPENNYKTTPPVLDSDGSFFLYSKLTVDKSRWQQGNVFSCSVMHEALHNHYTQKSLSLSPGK
human PDL1-His (human), sequence (chain, as listed by the source): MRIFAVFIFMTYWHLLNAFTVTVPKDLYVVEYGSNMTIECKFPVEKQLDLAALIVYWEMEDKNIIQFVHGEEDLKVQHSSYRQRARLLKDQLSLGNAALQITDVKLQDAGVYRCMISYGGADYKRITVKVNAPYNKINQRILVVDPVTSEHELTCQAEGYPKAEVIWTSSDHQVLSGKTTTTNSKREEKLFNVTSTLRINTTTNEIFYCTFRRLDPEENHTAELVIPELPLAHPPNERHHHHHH

binding result [1]	Kd [2]	EC50 [3]	Binder
no binding	–	–	NbPDL1-14-Fc (antibody, V domains shown) VH: QVQLQESGGGLVQPGGSLRLSCAASGIISDINMVAWYRQAPGKQRELVAKIFRGGSTYYTDFVKGRFTISRENAKNTVYLQMNSLKPDDTAVYYCNARIQIRADRDYSDYWGQGTQVTVSS
no binding	–	–	PDL1-14 (antibody, V domains shown) VH: QVQLQESGGGLVQPGGSLRLSCAASGIISDINMVAWYRQAPGKQRELVAKIFRGGSTYYTDFVKGRFTISRENAKNTVYLQMNSLKPDDTAVYYCNARIQIRADRDYSDYWGQGTQVTVSS

Second part, the binder before the results:

Binder	binding result [1]	Kd [2]	EC50 [3]
PDL1-1v5 (antibody, V domains shown) VH: EVQLLESGGGLVQPGGSLRLSCAASGFTVSNSAVSWARQAPGKGLEWVSLIDSNRNTVYAQSVRGRFTISRDNVKNTVYLQMNSLRAEDTAVYYCAKGWGSTLWGQGTTVTVSS	–	12.2 nM	0.0478 µg/mL
PDL1-1v6 (antibody, V domains shown) VH: EVQLLESGGGLVQPGGSLRLSCAASGFTVSNSAVSWARQAPGKGLEWVSLIDSNRNTVYAQSVRGRFTISRDNSKNTVYLQMNSLKAEDTAVYYCAKGIWGSTLWGQGTTVTVSS	–	22 nM	–
